Biological target: the molecule itself
Test: AUC; sedimentation at 20 °C and 20,000 rpm; 25 mM Tris-HCl, 100 mM NaCl, pH 7.5; data analysed with SEDFIT

B1: K1 CPS-specific depolymerase K1 lyase of bacteriophage NTUH-K2044-K1-1 (enzyme, UniProt A0A068Q5Q5 1-651, looked up)
chain: MALIRLVAPERVFSDLASMVAYPNFQVQDKITLLGSAGGDFTFTTTASVVDNGTVFAVPGGYLLRKFVGPAYSSWFSNWTGIVTFMSAPNRHLVVDTVLQATSVLNIKSNSTLEFTDTGRILPDAAVARQVLNITGSAPSVFVPLAADAAAGSKVITVAAGALSAVKGTYLYLRSNKLCDGGPNTYGVKISQIRKVVGVSTSGGVTSIRLDKALHYNYYLSDAAEVGIPTMVENVTLVSPYINEFGYDDLNRFFTSGISANFAADLHIQDGVIIGNKRPGASDIEGRSAIKFNNCVDSTVKGTCFYNIGWYGVEVLGCSEDTEVHDIHAMDVRHAISLNWQSTADGDKWGEPIEFLGVNCEAYSTTQAGFDTHDIGKRVKFVRCVSYDSADDGFQARTNGVEYLNCRAYRAAMDGFASNTGVAFPIYRECLAYDNVRSGFNCSYGGGYVYDCEAHGSQNGVRINGGRVKGGRYTRNSSSHIFVTKDVAETAQTSLEIDGVSMRYDGTGRAVYFHGTVGIDPTLVSMSNNDMTGHGLFWALLSGYTVQPTPPRMSRNLLDDTGIRGVATLVAGEATVNARVRGNFGSVANSFKWVSEVKLTRLTFPSSAGALTVTSVAQNQDVPTPNPDLNSFVIRSSNAADVSQVAWEVYL
notes: K1 CPS-specific depolymerase (K1 lyase) encoded by orf34 of bacteriophage NTUH-K2044-K1-1, GenBank BAP15746, amino acids 1-651; Cloned into pET28a via NdeI and XhoI; This cloning would likely give an N-terminal His6 tag, but that is a surmise; also called K1 CPS depolymerase; polysaccharide depolymerase (PDP); source: E. coli BL21 (DE3), purified (nickel-chelating Sepharose, Superdex-200 gel …)
- stoichiometry N: 3
